Columns and labels:
Rat ROBO2 on cells = target: T1, Rat ROBO2 on cells (rat, UniProt Q7TPD3 22-1469 (mouse entry)); test: cell-based or functional assay
T1 chain: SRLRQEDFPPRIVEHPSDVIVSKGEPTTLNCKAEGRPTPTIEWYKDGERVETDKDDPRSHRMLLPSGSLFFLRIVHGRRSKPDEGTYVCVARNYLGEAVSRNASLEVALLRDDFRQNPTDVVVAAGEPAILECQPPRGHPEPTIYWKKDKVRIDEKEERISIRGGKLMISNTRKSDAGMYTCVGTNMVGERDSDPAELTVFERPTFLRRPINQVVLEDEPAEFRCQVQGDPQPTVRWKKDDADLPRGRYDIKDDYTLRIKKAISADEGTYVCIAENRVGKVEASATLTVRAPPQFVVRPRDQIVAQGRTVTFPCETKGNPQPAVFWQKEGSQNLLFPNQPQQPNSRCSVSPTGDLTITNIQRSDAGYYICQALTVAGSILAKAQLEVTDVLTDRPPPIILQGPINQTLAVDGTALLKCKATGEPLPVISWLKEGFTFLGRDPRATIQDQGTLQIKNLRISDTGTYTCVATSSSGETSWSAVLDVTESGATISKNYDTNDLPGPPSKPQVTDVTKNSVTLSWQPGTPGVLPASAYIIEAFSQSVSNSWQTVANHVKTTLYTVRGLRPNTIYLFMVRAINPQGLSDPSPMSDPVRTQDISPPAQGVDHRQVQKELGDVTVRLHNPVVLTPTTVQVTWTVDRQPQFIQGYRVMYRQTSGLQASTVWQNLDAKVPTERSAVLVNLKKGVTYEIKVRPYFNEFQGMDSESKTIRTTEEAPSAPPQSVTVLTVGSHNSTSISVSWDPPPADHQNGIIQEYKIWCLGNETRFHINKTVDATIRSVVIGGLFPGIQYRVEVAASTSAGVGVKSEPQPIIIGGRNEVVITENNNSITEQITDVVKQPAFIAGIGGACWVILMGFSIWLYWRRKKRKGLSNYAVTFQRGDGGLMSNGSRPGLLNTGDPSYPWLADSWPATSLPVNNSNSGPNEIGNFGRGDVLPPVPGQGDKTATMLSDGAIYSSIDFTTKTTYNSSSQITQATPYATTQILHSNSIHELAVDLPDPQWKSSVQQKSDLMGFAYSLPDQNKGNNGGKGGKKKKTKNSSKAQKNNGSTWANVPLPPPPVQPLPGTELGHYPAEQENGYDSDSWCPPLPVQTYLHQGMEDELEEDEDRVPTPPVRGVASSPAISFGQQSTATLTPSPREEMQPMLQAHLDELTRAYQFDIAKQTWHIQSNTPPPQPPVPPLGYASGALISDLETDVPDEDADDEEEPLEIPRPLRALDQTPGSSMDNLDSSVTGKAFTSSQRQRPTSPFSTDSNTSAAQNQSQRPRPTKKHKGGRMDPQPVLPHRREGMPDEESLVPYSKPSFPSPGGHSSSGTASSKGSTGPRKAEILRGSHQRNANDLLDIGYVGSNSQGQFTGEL

Human ROBO2 Ig1-Ig2-His [1] = target: T2, Human ROBO2 Ig1-Ig2-His (human, UniProt Q9HCK4 31-220); test: Octet method and SPR method
T2 construct: the His tag is named only in the SPR paragraphs; the Octet and ELISA paragraphs print 'ROBO2 Ig1-Ig2' without a tag; also called ROBO2 Ig1-2; Human ROBO2 Ig 1,2
T2 sequence: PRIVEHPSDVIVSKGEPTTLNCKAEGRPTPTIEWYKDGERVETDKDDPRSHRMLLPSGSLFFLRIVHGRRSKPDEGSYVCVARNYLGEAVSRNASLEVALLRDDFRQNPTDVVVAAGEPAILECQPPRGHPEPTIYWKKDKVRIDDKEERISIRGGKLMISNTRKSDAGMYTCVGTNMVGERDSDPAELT

Human ROBO2 Ig1-Ig2-His [2] = target: T2, Human ROBO2 Ig1-Ig2-His; test: SPR (Biacore T200), Abcs35 immobilized on a CM5 chip, ROBO2 Ig1-Ig2-His as analyte; column head kon(1/Ms)
Protocol: […] Association and dissociation were followed over time.
Based upon several criteria, Abcs25 and Abcs35 were selected for further characterization. Using flow cytometry, improvement in the binding EC₅₀ to human ROBO2 relative to the parental 93H2 was evaluated. Starting at 6.7 nM, 11-point, 3-fold dilution series were made for each antibody and used to stain HEK293 overexpressing human ROBO2 as described above for the ROBO2 fold selectivity (Example 2). […] In addition to measuring improved binding to human ROBO2, it was important to ensure that high affinity binding to both cynomolgus monkey ROBO2 and rat ROBO2 was maintained. Using HEK293 cells overexpressing either cynomolgus monkey ROBO2 or rat ROBO2, the relative dose-dependent binding of 93H2, Abcs25 and Abcs35 was evaluated as described above. High affinity binding to both cynomolgus monkey and rat ROBO2 was maintained in Abcs25 and Abcs35 (Table 4). […] Briefly, Abcs35 was immobilized to 300 resonance units (RU) on a CM5 chip. Association of ROBO2 Ig1-Ig2-His (ROBO2) was measured over 5 minutes and dissociation was followed for a period of 10 minutes.

B1: Abcs35 (antibody, human IgG1, kappa)
heavy: EVQLVQSGAEVKKPGASVKVSCKASGYTFTGYYMHWVRQAPGQGLEWMGWINPKNGDTEFPQKFQGRVTMTRDTSITTAYMDLSRLRSDDTAVYYCARESGDDAFDIWGQGTMVTVSSASTKGPSVFPLAPSSKSTSGGTAALGCLVKDYFPEPVTVSWNSGALTSGVHTFPAVLQSSGLYSLSSVVTVPSSSLGTQTYICNVNHKPSNTKVDKKVEPKSCDKTHTCPPCPAPEAAGAPSVFLFPPKPKDTLMISRTPEVTCVVVDVSHEDPEVKFNWYVDGVEVHNAKTKPREEQYNSTYRVVSVLTVLHQDWLNGKEYKCKVSNKALPAPIEKTISKAKGQPREPQVYTLPPSREEMTKNQVSLTCLVKGFYPSDIAVEWESNGQPENNYKTTPPVLDSDGSFFLYSKLTVDKSRWQQGNVFSCSVMHEALHNHYTQKSLSLSPGK
light: DIVMTQSPSSLSASVGDRVTITCRASQSISSYLNWYQQKPGKAPKLLIYAASSLQSGVPSRFSGSGSGTDFTLTISSLQPEDFATYYCQQSVGLFFGGGTKVEIKRTVAAPSVFIFPPSDEQLKSGTASVVCLLNNFYPREAKVQWKVDNALQSGNSQESVTEQDSKDSTYSLSSTLTLSKADYEKHKVYACEVTHQGLSSPVTKSFNRGEC
notes: fully human IgG1; VH of Ab96 with VL of Ab123
IC50, restoration of neuronal cell migration (SVZa assay) (Rat ROBO2 on cells): 0.027 nM
Kd (Human ROBO2 Ig1-Ig2-His [1]): 0.279 nM
kon (Human ROBO2 Ig1-Ig2-His [2]): 2.96e+07 M⁻¹ s⁻¹
